Laboratory results reported in US20250136687A1 (SHANDONG SIMCERE BIOPHARMACEUTICAL, published 2025).
Where two headings read alike, the source gives them in different places.

T1: monkey CD3ε protein (monkey, UniProt Q95LI5 22-117, limits assumed)
T1 sequence (looked up): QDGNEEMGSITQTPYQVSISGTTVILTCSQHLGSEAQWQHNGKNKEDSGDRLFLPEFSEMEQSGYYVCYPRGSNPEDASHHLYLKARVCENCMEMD


Key:
[1] = target: T2, human CD3 on the cell surface (Jurkat cells, expanded human T cells, Jurkat-Lucia NFAT cells, human PBMC) (human, UniProt P07766 23-207; P04234 22-171; P09693 23-182); assay: FACS, Jurkat cells
T2 construct: whole, on cells; Endogenous CD3 within the TCR-CD3 complex on cells (also zeta chains and TCR); the cell type is named under assay
T2 sequence (P07766 23-207, chain 1 of 3): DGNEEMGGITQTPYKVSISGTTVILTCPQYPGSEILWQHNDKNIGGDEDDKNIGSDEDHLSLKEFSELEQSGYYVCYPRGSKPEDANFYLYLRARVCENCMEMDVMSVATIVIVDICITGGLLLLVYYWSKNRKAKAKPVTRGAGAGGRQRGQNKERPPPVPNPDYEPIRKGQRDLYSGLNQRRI
T2 sequence (P04234 22-171, chain 2 of 3): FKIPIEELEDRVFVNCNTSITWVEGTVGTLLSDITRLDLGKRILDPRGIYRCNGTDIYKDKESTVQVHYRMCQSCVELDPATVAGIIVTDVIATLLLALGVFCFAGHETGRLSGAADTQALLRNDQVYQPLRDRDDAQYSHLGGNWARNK
T2 sequence (P09693 23-182, chain 3 of 3): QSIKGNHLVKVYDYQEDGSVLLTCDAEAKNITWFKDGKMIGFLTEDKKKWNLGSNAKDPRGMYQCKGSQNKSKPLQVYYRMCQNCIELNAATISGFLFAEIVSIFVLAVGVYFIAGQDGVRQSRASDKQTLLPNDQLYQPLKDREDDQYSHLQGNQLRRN
Protocol: (§1) The binding of the chimeric antibodies to CD3 on the cell surface was analyzed by detecting the binding of the antibodies to Jurkat cells and human T cells. Suspension cells Jurkat cells were scale-up cultured in T-75 cell culture flasks to the logarithmic growth phase, the supernatant of the medium was discarded by centrifugation, and the cell pellet was washed 2 times with PBS for later use. The expanded human T cells were washed 2 times with PBS for later use. After counting the cells in the previous step, the cell pellet was resuspended with [PBS+2% (w/w) BSA] blocking solution to 4×10⁶ cells/ml, and added to a 96-well FACS reaction plate at 50 μl/well, and then the chimeric antibody to be tested was added at 50 μl/well, and incubated at 4° C. for 1 h. The cells were centrifuged and washed 3 times with a PBS buffer. […] The cells were centrifuged and washed 5 times with PBS, and FACS (FACS Canto™, purchased from BD Company) was used for detection and result analysis. Data analysis was performed by software (CellQuest) to obtain the mean fluorescence […] (MFI) of the cells. And then software (GraphPad Prism8) was used for analysis, data fitting, and EC50 value calculation. The same method was used to simultaneously detect the binding of the chimeric antibodies to endogenous CD3 negative cells MOLT4 cells.

[2] = target: T2, human CD3 on the cell surface (Jurkat …); assay: cell-based or functional assay
[3] = target: T2, human CD3 on the cell surface (Jurkat …); assay: FACS, expanded human T cells
Protocol: as §1

[4] = target: T3, cynomolgus monkey CD3 on the surface of expanded monkey T cells (cynomolgus monkey, UniProt Q95LI5 22-198; Q95LI8 22-171; Q95LI7 23-181); assay: FACS, expanded monkey T cells
T3 construct: whole, on cells; Endogenous CD3 within the TCR-CD3 complex on T cells expanded from cynomolgus monkey PBMC
T3 sequence (Q95LI5 22-198, chain 1 of 3): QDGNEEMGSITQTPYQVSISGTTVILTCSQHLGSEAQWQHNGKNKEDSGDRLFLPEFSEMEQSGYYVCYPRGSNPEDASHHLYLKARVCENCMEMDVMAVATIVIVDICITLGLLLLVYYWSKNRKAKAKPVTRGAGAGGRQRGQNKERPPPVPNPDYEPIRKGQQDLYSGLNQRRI
T3 sequence (Q95LI8 22-171, chain 2 of 3): as the sequence (P04234 22-171, chain 2 of 3) above, with I5V, N15K, I20V, S32T, D33N, I34N, T64A, S74N, V83L, H141R counted along it
T3 sequence (Q95LI7 23-181, chain 3 of 3): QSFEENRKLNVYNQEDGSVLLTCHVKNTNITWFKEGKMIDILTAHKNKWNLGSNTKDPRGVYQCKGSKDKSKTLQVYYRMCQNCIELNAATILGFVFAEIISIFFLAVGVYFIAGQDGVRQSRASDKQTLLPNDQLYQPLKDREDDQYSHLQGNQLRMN
Protocol: as §1
FACS detection and data analysis were performed on the cryopreserved monkey T cells of Example 2.4 according to the method in Example 5.1.

[5] = target: T4, human CD3ε/δ-His (human, UniProt P07766 23-126; P04234 22-105); assay: ELISA, coated antigen
T4 construct: Bought recombinant heterodimer with His tag; also called human CD3ε/δ protein
T4 sequence (P07766 23-126, stated change not applied, form in doubt, chain 1 of 2): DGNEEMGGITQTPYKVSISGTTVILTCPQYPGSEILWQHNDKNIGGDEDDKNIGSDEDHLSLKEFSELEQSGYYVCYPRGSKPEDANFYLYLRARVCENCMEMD
T4 sequence (P04234 22-105, stated change not applied, form in doubt, chain 2 of 2): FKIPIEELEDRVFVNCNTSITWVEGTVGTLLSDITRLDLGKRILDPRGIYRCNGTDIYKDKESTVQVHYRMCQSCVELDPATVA
Protocol: (§2) To detect the binding activity of the humanized antibodies to CD3 protein, CD3 protein was diluted with PBS to the final concentration of […], then added to a 96-well ELISA plate at 50 μL/well, and the plate was sealed with a plastic film, and incubated overnight at 4° C. On the next day, the plate was washed 2 times with PBS, and a blocking solution [PBS+2% (v/v) BSA] was added for blocking at room temperature for 2 h. The blocking solution was poured off, and the antibody (initial concentration of 100 nM, and gradient dilution at 1:10) or a negative control antibody was added at 50 µl/well. After incubation at 37° C. for 2 h, the plate was washed 3 times with PBS. […] TMB substrate was added at 50 μl/well, and incubated at room temperature for 10 min, and then a stop solution (1.0 N HCl) was added at 50 μl/well. The OD450 nm values were read by an ELISA microplate reader (Multimode Plate Reader, EnSight, purchased from Perkin Elmer).

[6] = target: T5, recombinant human CD3ε-ECD His protein (human, UniProt P07766 23-126); assay: ELISA, coated antigen
T5 construct: extracellular domain; also called human CD3ε-His; CD3ε antigen protein; not shown: His tag
T5 sequence (P07766 23-126): as the sequence (P07766 23-126, stated change not applied, form in doubt, chain 1 of 2) above
Protocol: as §2

[7] = target: T6, monkey CD3ε/δ-His (monkey, UniProt Q95LI5 22-117; Q95LI8 22-105); assay: ELISA, coated antigen
T6 construct: Bought recombinant heterodimer with His tag
T6 sequence (Q95LI8 22-105, stated change not applied, form in doubt, chain 2 of 2, one chain of several): as the sequence (P04234 22-105, stated change not applied, form in doubt, chain 2 of 2) above, with I5V, N15K, I20V, S32T, D33N, I34N, T64A, S74N, V83L counted along it
Protocol: as §2
(§3) To detect the binding activity of the humanized antibodies to monkey CD3 protein, CD3 protein was diluted with PBS to the final concentration of […], and then added to a 96-well ELISA plate at 50 μl/well.

[8] = target: T1, monkey CD3ε protein; assay: ELISA, coated antigen
Protocol: as §2, §3

[9] = target: T2, human CD3 on the cell surface (Jurkat …); assay: FACS, expanded human T cells; remark: listed apart in the source
Protocol: as §1
The expanded human PBMC cells were collected, and FACS detection and data analysis were performed according to the method in Example 5.1.

[10] = target: T3, cynomolgus monkey CD3 on the surface of …; assay: FACS, expanded monkey T cells; remark: listed apart in the source
Protocol: as §1
The expanded monkey T cells were collected, and FACS detection and data analysis were performed according to the method in Example 5.1.

[11] = target: T4, human CD3ε/δ-His; assay: SPR, antibody captured on Protein A chip
Protocol: (§4) Running buffer was HBS-EP+(10 mM HEPES, 150 mM NaCl, 3 mM EDTA, 0.05% surfactant P20) (GE Healthcare; BR-1006-69). The flow-through cell was set to 25° C. The sample block was set to 16° C. Both were pretreated with the running buffer. In each cycle, an antibody to be detected was first captured with a Protein A chip, and then a single concentration of CD3ε antigen protein was injected. The binding and dissociation processes of the antibody and the antigen protein were recorded, and finally Glycine pH 1.5 (GE Healthcare; BR-1003-54) was used to complete chip regeneration. The binding was measured by injecting different concentrations of recombinant human CD3ε proteins in a solution for 240 s with a flow rate of 30 μL/min. The concentration started from 200 nM (see the detailed results for the actual concentration in the test) and was diluted at 1:1, making a total of 5 concentrations. The dissociation phase was monitored for up to 600 s and was triggered by switching from sample solution to running buffer. The surface was regenerated by washing with a 10 mM glycine solution (pH 1.5) for 30 s at a flow rate of 30 μL/min. Bulk refractive index difference was corrected by subtracting the response obtained from the goat anti-human Fc surface, and the blank injection was subtracted at the same time (=double reference). For calculation of apparent KD value and other kinetic parameters, Langmuir 1:1 model was used.

[12] = target: T5, recombinant human CD3ε-ECD His protein; assay: SPR, antibody captured on Protein A chip
Protocol: as §4

| EC50 [5] | max-OD450 [5] | EC50 [6] | max-OD450 [6] | EC50 [7] | max-OD450 [7] | EC50 [8] | max-OD450 [8] | EC50 [9] | max_MFI [9] | EC50 [10] | max_MFI [10] | Kd [11] | koff [11] | kon [11] | Kd [12] | koff [12] | kon [12] | other results | Binder |
| --- | --- | --- | --- | --- | --- | --- | --- | --- | --- | --- | --- | --- | --- | --- | --- | --- | --- | --- | --- |
| – | – | – | – | – | – | – | – | – | – | – | – | – | – | – | – | – | – | EC50 [1]: 8.3 nM; MFI_Max [1]: 26700 MFI; EC50 (nM), luciferase reporter, Jurkat-Lucia NFAT cells [2]: 0.82 nM; Maximum response value (RLU) [2]: 27000 RLU; EC50 [3]: 3.62 nM; MFI_Max [3]: 8900 MFI; EC50 [4]: 4.18 nM; MFI_Max [4]: 18200 MFI | 6-35.22 human-murine chimeric antibody (antibody, human IgG1, kappa, V domains shown, Human IgG1 chimera) VH: EVKLVESGGGLVQPGASLSLSCAASGFTFTDYYMSWVRQPPGKALEWLAMSRNKAKGHTIEYSSSVKGRFTISRDNSQSILYLQMNALRAEDSATYYCARDTYESYDGYFDVWGAGTTVIVSS VL: DIVMSQSPSSLAVSAGETVTMSCKSSQSLFNSRSRKNYLAWYQQKPGQTPKLLIYWASIRESGVPDRFTGSGSGTDFTLTISSVQAEDLAVYYCKQSYYLYTFGSGTKLEIKR |
| 0.19 nM | 3.01 OD450 | 0.0206 nM | 3.16 OD450 | 0.00332 nM | 3.08 OD450 | 0.00263 nM | 2.99 OD450 | 1.52 nM | 35900 MFI | 0.92 nM | 25400 MFI | 27.4 nM | 0.00983 s⁻¹ | 358000 M⁻¹ s⁻¹ | 0.806 nM | 0.000214 s⁻¹ | 266000 M⁻¹ s⁻¹ | – | 5-7.13-H1a-L2 humanized antibody (antibody, human IgG1, kappa, V domains shown) VH: EVQLVQSGAEVKKPGASVKVSCKASGYTFTSYWVHWVRQAPGQRLEWMGNINPSDGVTNYNEKFKSRVTITVDKSASTAYMELSSLRSEDTAVYYCTRDAYGQYYFDNWGQGTTVTVSS VL: DIVMTQTPLSLPVTPGEPASISCKSSQSLLNSRTRKNYLAWYLQKPGQSPQLLIYWASVRDSGVPDRFSGSGSGTDFTLKISRVEAEDVGVYYCIQSYYLRTFGGGTKVEIKR |
| 0.53 nM | 2.93 OD450 | 0.0337 nM | 3.1 OD450 | – | – | – | – | 49.7 nM | 11300 MFI | – | – | – | – | – | – | – | – | – | 6-35.22-H1-L1 humanized antibody (antibody, human IgG1, kappa, V domains shown) VH: EVQLVESGGGVVQPGRSLRLSCAASGFTFTDYYMSWVRQAPGKGLEWVAMSRNKAKGHTIEYSSSVKGRFTISRDNSKNTLYLQMNSLRAEDTAVYYCARDTYESYDGYFDVWGQGTTVTVSS VL: DIVMTQSPDSLAVSLGERATINCKSSQSLFNSRSRKNYLAWYQQKPGQTPKLLIYWASIRESGVPDRFSGSGSGTDFTLTISSLQAEDVAVYYCKQSYYLYTFGQGTKLEIKR |
| 0.32 nM | 3.15 OD450 | 0.0395 nM | 3.12 OD450 | 0.0552 nM | 3.13 OD450 | 0.00859 nM | 3.01 OD450 | 9.45 nM | 10000 MFI | 7.84 nM | 10200 MFI | 145 nM | 0.0335 s⁻¹ | 231000 M⁻¹ s⁻¹ | 1.29 nM | 0.000369 s⁻¹ | 286000 M⁻¹ s⁻¹ | – | 7-35.6-H2-L3 humanized antibody (antibody, human IgG1, lambda, V domains shown) VH: EVQLVESGGGLVQPGGSLKLSCAASGFTFNTYAMNWVRQASGKGLEWVGRIRSKINNYATYYGDSVKDRFTISRDDSKNTFYLQMNSLKTEDTAVYYCVIHENYGSISWFAYWGQGTLVTVSS VL: ETVVTQEPSLTVSPGGTVTLTCRSSTGAVTTSNYANWVQQKPGQAFTGLIGGTNNRAPWTPARFSGSLLGGKAALTLSGVQPEDEAEYYCALWYSNHWVFGGGTKLTVLG |
| 0.22 nM | 3.16 OD450 | 0.0363 nM | 3.11 OD450 | 0.0193 nM | 3.16 OD450 | 0.00475 nM | 3.1 OD450 | 7.05 nM | 11500 MFI | 2.84 nM | 11800 MFI | 67.4 nM | 0.0317 s⁻¹ | 469000 M⁻¹ s⁻¹ | 0.908 nM | 0.000249 s⁻¹ | 274000 M⁻¹ s⁻¹ | – | 8-18.1-H1-L2 humanized antibody (antibody, human IgG1, kappa, V domains shown) VH: EVQLVQSGAEVKKPGASVKVSCKASGYTFTMNTMHWVRQAPGQRLEWMGYINPYSGYTKYNQIFKDRVTITADKSASTAYMELSSLRSEDTAVYYCLRGGEGVWGQGTTVTVSS VL: DVVMTQSPLSLPVTLGQPASISCKSSQSLLDSDGKTYLNWLQQRPGQSPRRLIYLVSELGSGVPDRFSGSGSGTDFTLKISRVEAEDVGVYYCWQGTHFPRTFGGGTKVEIKR |
